Data on ten molecules can be found in paper PMC7824274, “Separation of Coiled-Coil Structures in Lamin A/C Is Required for the Elongation of the Filament” (Cells, 2020).

T1: His-tagged lamin A/C 1-300 fragment, Y45C (human), P02545
T1 chain: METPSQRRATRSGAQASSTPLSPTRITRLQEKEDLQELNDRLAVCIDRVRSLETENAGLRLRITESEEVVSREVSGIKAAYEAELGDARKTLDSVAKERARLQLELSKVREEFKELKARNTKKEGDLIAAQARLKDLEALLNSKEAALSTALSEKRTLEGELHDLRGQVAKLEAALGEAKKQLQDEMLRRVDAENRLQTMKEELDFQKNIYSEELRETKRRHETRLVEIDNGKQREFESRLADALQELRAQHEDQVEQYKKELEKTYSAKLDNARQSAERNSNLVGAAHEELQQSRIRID

T2: lamin A/C 250-400 fragment, K316C (human, UniProt P02545 250-400, K316C)
T2 construct: lamin A/C, human, residues 250-400 with K316C; the methods say that preys were His-tag cleaved; also called lamin 250-400 K316C; source: E. coli BL21 (DE3), purified (cobalt-Talon, TEV cleavage, HiTrap Q, SEC); not shown: His-tag, N-terminal, cleaved
T2 sequence (looked up): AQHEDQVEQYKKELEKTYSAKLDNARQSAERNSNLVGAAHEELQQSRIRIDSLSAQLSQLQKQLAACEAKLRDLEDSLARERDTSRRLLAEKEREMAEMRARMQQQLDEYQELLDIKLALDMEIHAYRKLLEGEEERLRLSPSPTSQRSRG

T3: lamin A/C 250-400 fragment, Y267C (human, UniProt P02545 250-400, Y267C)
T3 construct: lamin A/C, human, residues 250-400 with Y267C; the methods say that preys were His-tag cleaved; also called lamin 250-400 Y267C; source: E. coli BL21 (DE3), purified (cobalt-Talon, TEV cleavage, HiTrap Q, SEC); not shown: His-tag, N-terminal, cleaved
T3 sequence (looked up): T2 sequence (looked up) with Y18C, C67K

B1: lamin A/C 250-400 fragment, wild type, tag-free (domain or fragment, human, UniProt P02545 250-400, looked up)
chain: T2 sequence (looked up) with C67K
notes: lamin A/C, human, residues 250-400 (C-terminal part of coil 2); His-tag cleaved with TEV protease; also called lamin 250-400; coil 2 fragment; source: E. coli BL21 (DE3), purified (cobalt-Talon, TEV cleavage, HiTrap Q, SEC); not shown: His-tag, N-terminal, cleaved
B2: His-tagged lamin A/C 1-125 fragment, wild type (domain or fragment, human, UniProt P02545 1-125, looked up)
chain: METPSQRRATRSGAQASSTPLSPTRITRLQEKEDLQELNDRLAVYIDRVRSLETENAGLRLRITESEEVVSREVSGIKAAYEAELGDARKTLDSVAKERARLQLELSKVREEFKELKARNTKKEG
notes: pProEx-HTa vector: a TEV protease cleavage site stands between the His-tag and the lamin residues; also called coil 1a fragment; source: E. coli BL21 (DE3), purified (cobalt-Talon, HiTrap Q, SEC); not shown: His-tag, N-terminal, kept
B3: His-tagged lamin A/C 1-125 fragment, Y45C (domain or fragment, human, UniProt P02545 1-125, looked up)
chain: B2 chain with Y45C
notes: pProEx-HTa vector: a TEV protease cleavage site stands between the His-tag and the lamin residues; source: E. coli BL21 (DE3), purified (cobalt-Talon, HiTrap Q, SEC); not shown: His-tag, N-terminal, kept
B4: His-tagged lamin A/C 1-125 fragment, L59R (domain or fragment, human, UniProt P02545 1-125, looked up)
chain: B2 chain with L59R
notes: pProEx-HTa vector: a TEV protease cleavage site stands between the His-tag and the lamin residues; also called His-lamin 1-125 L59R; source: E. coli BL21 (DE3), purified (cobalt-Talon, HiTrap Q, SEC); not shown: His-tag, N-terminal, kept
B5: His-tagged lamin A/C 1-125 fragment, I63S (domain or fragment, human, UniProt P02545 1-125, looked up)
chain: B2 chain with I63S
notes: as for B3
B6: His-tagged lamin A/C 1-300 fragment, wild type (domain or fragment, human, UniProt P02545 1-300, looked up)
chain: T1 chain with C45Y
notes: lamin A/C, human, residues 1-300 (N-terminal head, coil 1a, L1, coil 1b and following residues); pProEx-HTa vector: a TEV protease cleavage site stands between the His-tag and the lamin residues; also called lamin 300 fragment; His-lamin 1-300 WT; source: E. coli BL21 (DE3), purified (cobalt-Talon, HiTrap Q, SEC); not shown: His-tag, N-terminal, kept
B7: His-tagged lamin A/C 1-300 fragment, L35V (domain or fragment, human, UniProt P02545 1-300, looked up)
chain: T1 chain with L35V, C45Y
notes: lamin A/C, human, residues 1-300 with the EDMD mutation L35V; pProEx-HTa vector: a TEV protease cleavage site stands between the His-tag and the lamin residues; also called His-lamin 1-300 L35V; lamin 300 L35V; source: E. coli BL21 (DE3), purified (cobalt-Talon, HiTrap Q, SEC); not shown: His-tag, N-terminal, kept
B8: His-tagged lamin A/C 1-300 fragment, I63S (domain or fragment, human, UniProt P02545 1-300, looked up)
chain: T1 chain with C45Y, I63S
notes: lamin A/C, human, residues 1-300 with the EDMD mutation I63S; pProEx-HTa vector: a TEV protease cleavage site stands between the His-tag and the lamin residues; also called His-lamin 1-300 I63S; lamin 300 I63S; source: E. coli BL21 (DE3), purified (cobalt-Talon, HiTrap Q, SEC); not shown: His-tag, N-terminal, kept
B9: His-tagged lamin A/C 1-300 fragment, Y45C (domain or fragment, human, UniProt P02545 1-300, looked up)
chain: T1 chain
notes: lamin A/C, human, residues 1-300 with the EDMD mutation Y45C; pProEx-HTa vector: a TEV protease cleavage site stands between the His-tag and the lamin residues; also called His-lamin 1-300 Y45C; lamin 300 Y45C; source: E. coli BL21 (DE3), purified (cobalt-Talon, HiTrap Q, SEC); not shown: His-tag, N-terminal, kept
B10: His-tagged lamin A/C 1-300 fragment, L59R (domain or fragment, human, UniProt P02545 1-300, looked up)
chain: T1 chain with C45Y, L59R
notes: lamin A/C, human, residues 1-300 with the CDM1A mutation L59R; pProEx-HTa vector: a TEV protease cleavage site stands between the His-tag and the lamin residues; also called His-lamin 1-300 L59R; lamin 300 L59R; source: E. coli BL21 (DE3), purified (cobalt-Talon, HiTrap Q, SEC); not shown: His-tag, N-terminal, kept

Data set [1] concerns the target B7. Briefly: ITC; His-tagged lamin 300 fragments in the cell (25 uM), TEV-cleaved lamin 250-400 in the syringe (180 uM); PBS; 25 °C; 19 injections of 2 uL. The conditions noted are these: both partners purified. Background: Isothermal titration calorimetry measures the heat released or taken up as one component is titrated into another.
In data set [2] the target is B10. The description is as above. The conditions noted are these: both partners purified.
For data set [3], the target named is B8. Described as above. The conditions noted are these: both partners purified.
Data set [4] deals with B6. Briefly: pull-down; His-tagged lamin 1-300 variants on Ni-NTA resin as bait, tag-free lamin 250-400 as prey; 20 mM Tris-HCl pH 8.0 with 50 mM or 150 mM NaCl; room temperature 30 min; SDS-PAGE. The conditions noted are these: both partners purified.
For data set [5], the target named is T1, His-tagged lamin A/C 1-300 fragment, …. Briefly: ITC; His-tagged lamin 300 fragments in the cell (25 uM), TEV-cleaved lamin 250-400 in the syringe (180 uM); PBS; 25 °C; 19 injections of 2 uL. The conditions noted are these: remark: other sources report otherwise.
Data set [6] deals with T2, lamin A/C 250-400 fragment, K316C. Briefly: pull-down; His-tagged lamin 1-125 (wild type or L38C, L42C) on Ni-NTA resin, lamin 250-400 fragments (wild type or cysteine mutants) as prey; oxidized (0.5 mM GSSG) and reducing (5 mM TCEP) conditions; SDS-PAGE. The conditions noted are these: both partners purified.
The target of data set [7] is B1. Described as above. The conditions noted are these: both partners purified.
Data set [8] has as its target T3, lamin A/C 250-400 fragment, Y267C. Described as above. The conditions noted are these: both partners purified.
The target in data set [9] is B1. Briefly: pull-down; His-tagged lamin 1-125 variants on Ni-NTA resin as bait, lamin 250-400 as prey; 20 mM Tris-HCl pH 8.0 with 50 mM NaCl; SDS-PAGE. The conditions noted are these: both partners purified.
Data set [10] deals with the molecule itself. Briefly: not stated; purified lamin 300 fragments in solution; how the dimeric state was found is not told.

Positions count from the first letter of the chain named. Names and notes keep the numbering of the source.

B1: the “fold decrease of the interaction (KD) against wild type” value in data set [1] is about 2 fold; in data set [5], 5 fold. Besides, the entries for the “fold increase of the interaction (KD) against wild type” value in data set [2] and in data set [3] were about 56 fold and about 2 fold, respectively. In addition, the binding result in [4] is reported as “binds”. As to B2, the binding result in [6], in data set [7] and in [8] was “binds” each time. In the case of B3, the binding result in data set [9] is listed as “binds”. As for B4, the binding result in [9] is listed as “binds”. Take B5: the binding result in [9] is on record as “binds”.

For orientation: stoichiometry N means the number of molecules, sites or subunits per partner or assembly. B6: the “stoichiometry N” value in data set [10] amounted to 2.

For the molecule B7, in [10], the “stoichiometry N” value came out at 2. Take B8: in data set [10], the “stoichiometry N” value worked out at 2. B9: the “stoichiometry N” value in data set [10] came to 2.

As to B10, the “stoichiometry N” value in [10] turned out to be 2.
